For 5 molecules, EC50 results are on record in paper PMC9990171 (2023).

One may read the EC50 as the concentration that produces a half-maximal response. A high value points to weaker potency.

Assay [1] concerns the target SARS-CoV-2 S receptor binding domain (RBD) (SARS-CoV-2 (Wuhan-Hu-1), UniProt P0DTC2 329-538). Description: ELISA. A general note: An ELISA detects its analyte on a solid surface through an enzyme-linked reagent.
The target of assay [2] is SARS-CoV-2 S N-terminal domain (NTD) (SARS-CoV-2 (Wuhan-Hu-1), UniProt P0DTC2 14-294). The assay can be described thus: ELISA.

B1: 14D2 bivalent human heavy-chain-only antibody (HCAb) (antibody, V domains shown)
VH: EVQLVETGGGLIQPGGSLRLSCAASGFQVSNVYMSWVRQAPGKGQEWVSVLYSGGNTYYADSVKGRFTISRDNSKNMVYLQMNSLRVEDTAVYYCARGWEGVTGTTGPWGQGTLVTVSS
As for B1, the 50% effective concentration (EC50) in assay [1] was 3.48 ng/mL.

B2: 7D1 bivalent human heavy-chain-only antibody (HCAb) (antibody, V domains shown)
VH: EVQLVETGGGLIQPGGSLRLSCAASGFQVSSSYMSWVRQAPGKGLEWVSVIYSGGGTYYADSVKGRFTISRDISKNTLYLQMNNLRAEDTAMYYCARGWTGVTATTGPWGQGTLVTVSS
On to B2, for which, in assay [1], it took 4.11 ng/mL to reach a half-maximal effect (EC50).

B3: 10D12 bivalent human heavy-chain-only antibody (HCAb) (antibody, V domains shown)
VH: EVQLVETGGGLIQPGGSLRLSCAVSGFTVSLNYMSWVRQAPGKGLEWVSSIYSGGSTFYADSVKGRFTISRDNSKNTLYLQMNSLRAEDTAVYYCARGLGFGELPPFDFWGQGTLVTVSS
In the case of B3, the response in assay [1] was half-maximal at 3.22 ng/mL (EC50).

B4: 10H7 bivalent human heavy-chain-only antibody (HCAb) (antibody, V domains shown)
VH: EVQLVESGGGLIQPGGSLRLSCAASGFTVSNNYMAWVRQAPGKGLEWISVIYANGNTYYADSVKGRFTISRDNSKNVLFLQMSGLRAEDTAVYYCSSRYGSGSEELYDIWGQGTMVTVSS
B4 registered a half-maximal effective concentration (EC50) in assay [1] of 3.09 ng/mL. This EC50 and that of the molecule before are within 1.5-fold of each other.

B5: 11C12 bivalent human heavy-chain-only antibody (HCAb) (antibody, V domains shown)
VH: EVQLVESGGGLVQPGGSLRLSCAASGFTFSSSWMYWVRHIPGKGLEWVSRTTSDVASTFYADSVKGRFTVSRDNAKNMLYLQMNSLRAEDTAVYYCTRDFHDLWSGYYNHWGQGTLVTVSS
With B5, the EC50 in assay [2] came to 181 ng/mL.
